Key:
MARV VP35 RBD [1] = molecular target: T1, MARV VP35 RBD (Marburg virus, UniProt P35259 205-329); assay: dual-filter dot blot; Hill 3.1±0.2; 10 mM Tris pH 8.0, 200 mM NaCl, 2 mM TCEP ([…], and ITC); temperature not stated; details: protein: recombinant; tags: 6xHis (pET46b), TEV-cleaved; chain copies: 4; label: 5'-32P sense strand (dot blot); none in ITC
RESTV VP35 RBD [2] = molecular target: T2, RESTV VP35 RBD (Reston virus (RESTV), UniProt Q8JPY0 205-329); assay: dual-filter dot blot; Hill 3.4±0.4; 10 mM Tris pH 8.0, 200 mM NaCl, 2 mM TCEP ([…], and ITC); temperature not stated; details: protein: recombinant; tags: 6xHis, cleaved; chain copies: 2; label: 5'-32P sense strand (dot blot); none in ITC
T2 sequence: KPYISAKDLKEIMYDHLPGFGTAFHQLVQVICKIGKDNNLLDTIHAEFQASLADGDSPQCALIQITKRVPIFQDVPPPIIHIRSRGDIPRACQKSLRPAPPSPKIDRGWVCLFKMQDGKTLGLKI

MARV VP35 RBD [3] = molecular target: T1, MARV VP35 RBD; assay: ITC; 10 mM Tris pH 8.0, 200 mM NaCl, 2 mM TCEP ([…], and ITC); temperature not stated; details: protein: recombinant, tags: 6xHis (pET46b), TEV-cleaved, chain copies: 4, label: 5'-32P sense strand (dot blot), none in ITC
EBOV VP35 RBD [4] = molecular target: T3, EBOV VP35 RBD (Ebola virus, UniProt Q05127 216-340); assay: dual-filter dot blot; Hill 3.6±0.4; 10 mM Tris pH 8.0, 200 mM NaCl, 2 mM TCEP ([…], and ITC); temperature not stated; details: protein: recombinant; tags: 6xHis, cleaved; label: 5'-32P sense strand (dot blot); none in ITC
RESTV VP35 RBD [5] = molecular target: T2, RESTV VP35 RBD; assay: dual-filter dot blot; Hill 2.6±0.2; 10 mM Tris pH 8.0, 200 mM NaCl, 2 mM TCEP ([…], and ITC); temperature not stated; details: protein: recombinant; tags: 6xHis, cleaved; chain copies: 2; label: 5'-32P sense strand (dot blot); none in ITC; blunt
EBOV VP35 RBD [6] = molecular target: T3, EBOV VP35 RBD; assay: dual-filter dot blot; Hill 2.9±0.3; 10 mM Tris pH 8.0, 200 mM NaCl, 2 mM TCEP ([…], and ITC); temperature not stated; details: protein: recombinant; tags: 6xHis, cleaved; label: 5'-32P sense strand (dot blot); none in ITC; blunt
MARV VP35 RBD [7] = molecular target: T1, MARV VP35 RBD; assay: dual-filter dot blot; Hill 3.5±0.3; 10 mM Tris pH 8.0, 200 mM NaCl, 2 mM TCEP ([…], and ITC); temperature not stated; details: protein: recombinant; tags: 6xHis (pET46b), TEV-cleaved; chain copies: 4; label: 5'-32P sense strand (dot blot); none in ITC; blunt
MARV VP35 RBD [8] = molecular target: T1, MARV VP35 RBD; assay: X-ray crystal structure; 10 mM Tris pH 8.0, 200 mM NaCl, 2 mM TCEP ([…], and ITC); temperature not stated; details: protein: recombinant; tags: 6xHis (pET46b), TEV-cleaved; chain copies: 4
MARV VP35 RBD [9] = molecular target: T1, MARV VP35 RBD; assay: dual-filter dot blot; Hill 2.1±0.2; 10 mM Tris pH 8.0, 200 mM NaCl, 2 mM TCEP ([…], and ITC); temperature not stated; details: protein: recombinant; tags: 6xHis (pET46b), TEV-cleaved; chain copies: 4; label: 5'-32P sense strand

T1 sequence (P35259 205-329): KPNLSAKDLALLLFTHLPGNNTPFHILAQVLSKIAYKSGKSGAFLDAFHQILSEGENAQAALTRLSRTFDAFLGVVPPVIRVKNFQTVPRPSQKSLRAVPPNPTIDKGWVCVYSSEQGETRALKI
T3 sequence (Q05127 216-340): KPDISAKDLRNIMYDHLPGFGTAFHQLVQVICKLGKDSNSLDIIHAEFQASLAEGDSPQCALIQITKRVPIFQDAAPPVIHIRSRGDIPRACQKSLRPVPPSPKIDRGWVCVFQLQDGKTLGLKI

B1: 18-bp dsRNA with 3' overhang (dsRNA)
RNA 1: AGAAGGAGGGAGGGAGGAGAG
RNA 2: CUCUCCUCCCUCCCUCCUUCU
Kd (MARV VP35 RBD [1]): 9.3 ± 0.2 µM
Kd (RESTV VP35 RBD [2]): 6 ± 0.2 µM
Kd (MARV VP35 RBD [3]): 3.4 µM
Kd (EBOV VP35 RBD [4]): 17.1 ± 0.7 µM

B2: 18-bp blunt-ended dsRNA (dsRNA)
RNA 1: AGAAGGAGGGAGGGAGGA
RNA 2: UCCUCCCUCCCUCCUUCU
Kd (RESTV VP35 RBD [5]): 2.5 ± 0.1 µM
Kd (EBOV VP35 RBD [6]): 1.9 ± 0.1 µM
Kd (MARV VP35 RBD [7]): 8.4 ± 0.2 µM
Kd (MARV VP35 RBD [3]; blunt): 28.6 ± 16.5 µM

B3: 12-bp palindromic dsRNA (crystal) (dsRNA)
RNA 1: CUAGACGUCUAG
RNA 2: CUAGACGUCUAG
binding result (MARV VP35 RBD [8]): binds

B4: 18-bp dsRNA with 5' overhang (dsRNA)
RNA 1: GAGAGAAGGAGGGAGGGAGGA
RNA 2: UCCUCCCUCCCUCCUUCUCUC
Kd (MARV VP35 RBD [9]): 4.4 ± 0.3 µM

From paper PMC3441732, “Marburg Virus VP35 Can Both Fully Coat the Backbone and Cap the Ends of dsRNA for Interferon Antagonism”
